Laboratory results: US20110045489A1, “Polymerases for Incorporating Modified Nucleotides” (NEW ENGLAND BIOLABS, INC., priority 2008, published 2011)

Tests used:
Format in all cases: biochemical
3′-amino-ddCTP = experiment: Kinetic analysis of 3′-amino-ddCTP incorporation (primer extension, PAGE); conditions: FIG. 3
Description: (§1) An IR800-dye-labeled synthetic primer 5′-AGTGAATTCGAGCTCGGTACCCGGGGATCCTCTAGAGTCGACCTGCAGGC-3′ (SEQ ID NO:18) was annealed to a template 3′-TCACTTAAGCTCGAGCCATGGGCCCCTAGGAGATCTCAGCTGGACGTCCGGATCCTATACTAATCCC-5′ (SEQ ID NO:19) and used as a substrate. Reaction aliquots were sampled at 10, 30, 60, 120 and 300 seconds and analyzed by 20% denaturing PAGE. Unextended primer (0) and fully extended product (+1) are indicated.
Furthermore, the same assay was used to measure 3′-amino-ddCTP incorporation by 9° N exo-L408S/Y409A/P410V (FIG. 3) and to measure rates of incorporation (FIG. 4). Examples of mutants that increased modified nucleotide incorporation by at least two-fold were: […]

3′-azido-ddCTP = experiment: Kinetic analysis of 3′-azido-ddCTP incorporation (primer extension, PAGE)
Method: An IR800-dye-labeled synthetic primer 5′-AGTGAATTCGAGCTCGGTACCCGGGGATCCTCTAGAGTCGACCTGCAGGC-3′ (SEQ ID NO:18) was annealed to a template 3′-TCACTTAAGCTCGAGCCATGGGCCCCTAGGAGATCTCAGCTGGACGTCCGGATCCTATACTAATCCC-5′ (SEQ ID NO:19) and used as a substrate to measure rates of 3′-azido-ddCTP incorporation. Incorporation of varying concentrations of 3′-azido-ddCTP (100, 50, 25, 12.5, 6.25, and 3.125 μM) by 9° N exo-L408S/Y409A/P410V DNA polymerase was monitored over a three-minute time course. Reaction aliquots were sampled at 10, 20, 30, 45, 60, and 180 seconds and analyzed by 20% denaturing PAGE. “S” is the unextended primer and “P” is the fully extended product corresponding to 3′-azido-ddCMP addition at the +1 position.
as §1
Linear rates of 3′-azido-ddCTP incorporation derived from these curves are 100 μM: 0.05 s^−1; 50 μM: 0.05 s^−1; 25 μM: 0.05s^−1; 12.5 μM: 0.03s^−1; 6.25 μM: 0.03s^−1; 3.125 μM: 0.02 s^−1.
An IR800-dye-labeled synthetic primer 5′-AGTGAATTCGAGCTCGGTACCCGGGGATCCTCTAGAGTCGACCTGCAGGC-3′ (SEQ ID NO:18 was annealed to a template 3′-TCACTTAAGCTCGAGCCATGGGCCCCTAGGAGATCTCAGCTGGACGTCCGGATCCTATACTAATCCC-5′ (SEQ ID NO:19) and used as a substrate to measure rates of 3′-azido-ddCTP incorporation over a three-minute time course. The results are shown in FIG. 2. Reaction aliquots were sampled at 10, 20, 30, 45, 60, and 180 seconds and analyzed by 20% denaturing PAGE where “S” indicates the unextended primer and “P” the fully extended product corresponding to 3′-azido-ddCMP addition at the +1 position(B). 9° N exo-L408S/Y409A/P410V incorporation of varying concentrations of 3′-azido-ddCTP was measured over a three-minute time course.

modified nucleotide = experiment: Screen of DNA polymerase mutants for modified nucleotide incorporation
In short: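 Chain-terminator titration (Gardner and Jack 2002) compared terminator amounts giving equal product-size spectra, product size shrinking as terminator incorporation rises. Applied to purified 9° N exo- polymerase library mutants with 3′-azido-ddCTP and 3′-amino-ddCTP; incorporation rates also measured.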

B1: 9° N exo-L408S/Y409A/P410V: 9° N DNA polymerase mutant (Therminator III™, NEB) (protein, UniProt Q56366 1-775, looked up, variant D141A E143A L408S Y409A P410V)
DNA polymerase: MILDTDYITENGKPVIRVFKKENGEFKIEYDRTFEPYFYALLKDDSAIEDVKKVTAKRHGTVVKVKRAEKVQKKFLGRPIEVWKLYFNHPQDVPAIRDRIRAHPAVVDIYEYDIPFAKRYLIDKGLIPMEGDEELTMLAFAIATLYHEGEEFGTGPILMISYADGSEARVITWKKIDLPYVDVVSTEKEMIKRFLRVVREKDPDVLITYNGDNFDFAYLKKRCEELGIKFTLGRDGSEPKIQRMGDRFAVEVKGRIHFDLYPVIRRTINLPTYTLEAVYEAVFGKPKEKVYAEEIAQAWESGEGLERVARYSMEDAKVTYELGREFFPMEAQLSRLIGQSLWDVSRSSTGNLVEWFLLRKAYKRNELAPNKPDERELARRRGGYAGGYVKEPERGLWDNIVYLDFRSSAVSIIITHNVSPDTLNREGCKEYDVAPEVGHKFCKDFPGFIPSLLGDLLEERQKIKRKMKATVDPLEKKLLDYRQRAIKILANSFYGYYGYAKARWYCKECAESVTAWGREYIEMVIRELEEKFGFKVLYADTDGLHATIPGADAETVKKKAKEFLKYINPKLPGLLELEYEGFYVRGFFVTKKKYAVIDEEGKITTRGLEIVRRDWSEIAKETQARVLEAILKHGDVEEAVRIVKEVTEKLSKYEVPPEKLVIHEQITRDLRDYKATGPHVAVAKRLAARGVKIRPGTVISYIVLKGSGRIGDRAIPADEFDPTKHRYDAEYYIENQVLPAVERILKAFGYRKEDLRYQKTKQVGLGAWLKVKGKK
Q: Which results are given for B1?
A: concentration of modified nucleotide sufficient for efficient incorporation (3′-amino-ddCTP): 10 µM; linear rate of 3′-azido-ddCTP incorporation (3′-azido-ddCTP; 3.125 μM 3′-azido-ddCTP): 0.02 s⁻¹; linear rate of 3′-azido-ddCTP incorporation (3′-azido-ddCTP; 6.25 μM 3′-azido-ddCTP): 0.03 s⁻¹; linear rate of 3′-azido-ddCTP incorporation (3′-azido-ddCTP; 12.5 μM 3′-azido-ddCTP): 0.03 s⁻¹; linear rate of 3′-azido-ddCTP incorporation (3′-azido-ddCTP; 25 μM 3′-azido-ddCTP): 0.05 s⁻¹; linear rate of 3′-azido-ddCTP incorporation (3′-azido-ddCTP; 50 μM 3′-azido-ddCTP): 0.05 s⁻¹; linear rate of 3′-azido-ddCTP incorporation (3′-azido-ddCTP; 100 μM 3′-azido-ddCTP): 0.05 s⁻¹; concentration of modified nucleotide sufficient for efficient incorporation (3′-azido-ddCTP; 3′-azido-ddCTP, FIG. 3): 10 µM; 3′-azido-ddCTP incorporation (3′-azido-ddCTP; after three minutes): ~100%; increase of modified nucleotide incorporation (modified nucleotide): at least two-fold
